# B1: GST-LILRB3-D1/D2 (receptor)
# chain: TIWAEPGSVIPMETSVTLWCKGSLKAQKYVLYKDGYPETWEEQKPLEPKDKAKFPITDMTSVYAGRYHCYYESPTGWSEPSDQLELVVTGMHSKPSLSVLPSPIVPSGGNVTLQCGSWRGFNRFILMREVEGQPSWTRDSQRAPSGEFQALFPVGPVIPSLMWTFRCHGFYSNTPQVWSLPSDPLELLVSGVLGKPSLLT
# notes: also called LILRB3-D1/2D; not shown: glutathione S-transferase (GST) tag of expression vector pGEX-6p-1
# Target: T1, GST-DLA88-α3 (dog, UniProt P18466 207-299)
# T1 construct: also called recombinant protein containing only α3 domain of DLA88; not shown: glutathione S-transferase (GST) tag of expression vector pGEX-6p-1
# Assay: biolayer interferometry (BLItz); GST-DLA88-α3 immobilised on anti-GST sensor, GST-LILRB3 D1/D2 loaded as sample
# Experimental: The recombinant proteins DLA88-α3 and LILRB3-D1/D2 used in (b) were separately incubated at 37° C. for 2 hr, and immobilized on the BLI sensor for 5 min using DLA88-α3 as a ligand. LILRB3-D1/2D was loaded as a sample at the indicated concentrations.
# BLItz™ ([…]) was used to analyze the dynamics between DLA88-α3 and LILRB3-D1/D2. A GST sensor and an anti-GST antibody-immobilized sensor ([…]) were used. GST-DLA88-α3 and GST-LILRB3-D1/D2 were separately incubated at 37° C. for 2 hr. GST-DLA88-α3 was immobilized on the GST sensor as a ligand molecule for 5 min and completely covered with the GST sensor. After washing with PBS-T (5% Tween-PBS) for 30 sec, GST-LILRB3 D1/D2 was loaded as a sample while trembling for 2 min. In addition to association kinetics, dissociation kinetics was evaluated in PBS-T buffer for 2 min. The recombinant protein GST-GFP was used as a control.
# T1 sequence (P18466 other isoform, or with tags, fused parts or gaps): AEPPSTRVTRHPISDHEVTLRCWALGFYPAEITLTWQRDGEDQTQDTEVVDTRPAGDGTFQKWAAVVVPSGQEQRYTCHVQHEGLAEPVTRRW
binder,measurement,value
B1,Kd,6.54 µM
